# Patent US20230201319
# B1: Purified recombinant human ADAMTS13 (rADAMTS13, Takeda, Vienna, Austria) from a Chinese hamster ovary cell line (protein)
# chain: AAGGILHLELLVAVGPDVFQAHREDTERYVLTNLNIGAELLRDPSLGAQFRVHLVKMVILTEPEGAPNITANLTSSLLSVCGWSQTINPEDDTDPGHADLVLYITRFDLELPDGNRQVRGVTQLGGACSPTWSCLITEDTGFDLGVTIAHEIGHSFGLEHDGAPGSGCGPSGHVMASDGAAPRAGLAWSPCSRRQLLSLLSAGRARCVWDPPRPQPGSAGHPPDAQPGLYYSANEQCRVAFGPKAVACTFAREHLDMCQALSCHTDPLDQSSCSRLLVPLLDGTECGVEKWCSKGRCRSLVELTPIAAVHGRWSSWGPRSPCSRSCGGGVVTRRRQCNNPRPAFGGRACVGADLQAEMCNTQACEKTQLEFMSQQCARTDGQPLRSSPGGASFYHWGAAVPHSQGDALCRHMCRAIGESFIMKRGDSFLDGTRCMPSGPREDGTLSLCVSGSCRTFGCDGRMDSQQVWDRCQVCGGDNSTCSPRKGSFTAGRAREYVTFLTVTPNLTSVYIANHRPLFTHLAVRIGGRYVVAGKMSISPNTTYPSLLEDGRVEYRVALTEDRLPRLEEIRIWGPLQEDADIQVYRRYGEEYGNLTRPDITFTYFQPKPRQAWVWAAVRGPCSVSCGAGLRWVNYSCLDQARKELVETVQCQGSQQPPAWPEACVLEPCPPYWAVGDFGPCSASCGGGLRERPVRCVEAQGSLLKTLPPARCRAGAQQPAVALETCNPQPCPARWEVSEPSSCTSAGGAGLALENETCVPGADGLEAPVTEGPGSVDEKLPAPEPCVGMSCPPGWGHLDATSAGEKAPSPWGSIRTGAQAAHVWTPAAGSCSVSCGRGLMELRFLCMDSALRVPVQEELCGLASKPGSRREVCQAVPCPARWQYKLAACSVSCGRGVVRRILYCARAHGEDDGEEILLDTQCQGLPRPEPQEACSLEPCPPRWKVMSLGPCSASCGLGTARRSVACVQLDQGQDVEVDEAACAALVRPEASVPCLIADCTYRWHVGTWMECSVSCGDGIQRRRDTCLGPQAQAPVPADFCQHLPKPVTVRGCWAGPCVGQGTPSLVPHEEAAAPGRTTATPAGASLEWSQARGLLFSPAPQPRRLLPGPQENSVQSSACGRQHLEPTGTIDMRGPGQADCAVAIGRPLGEVVTLRVLESSLNCSAGDMLLLWGRLTWRKMCRKLLDMTFSSKTNTLVVRQRCGRPGGGVLLRYGSQLAPETFYRECDMQLFGPWGEIVSPSLSPATSNAGGCRLFINVAPHARIAIHALATNMGAGTEGANASYILIRDTHSLRTTAFHGQQVLYWESESSQAEMEFSEGFLKAQASLRGQYWTLQSWVPEMQDPQSWKGKEGT
# Biological target: von Willebrand factor (VWF) in plasma of patients with severe COVID-19, P04275
protein,measurement,value
B1,"Decrease (%) of VWF:CB 0 vs. 5 hrs, plasma B1",65%
same,"Decrease (%) of VWF:CB 0 vs. 5 hrs, plasma B2",60%
same,"Decrease (%) of VWF:CB 0 vs. 5 hrs, plasma B5",65%
same,"Decrease (%) of VWF:CB 0 vs. 5 hrs, plasma B7",52%
same,"Decrease (%) of VWF:CB 0 vs. 5 hrs, plasma B15",44%
same,"Decrease (%) of VWF:CB 0 vs. 5 hrs, plasma B18",63%
same,"Decrease (%) of VWF:CB 0 vs. 5 hrs, plasma S6",33%
same,"Decrease (%) of VWF:CB 0 vs. 5 hrs, plasma S10",60%
same,"Decrease (%) of VWF:CB 0 vs. 5 hrs, plasma S12",53%
same,"Decrease (%) of VWF:CB 0 vs. 5 hrs, plasma S21",44%
same,"Dimer relative to total multimer content (AUC %) at 0 hrs, plasma B1",3.6 AUC %
same,"Dimer relative to total multimer content (AUC %) at 0 hrs, plasma B2",5.4 AUC %
same,"Dimer relative to total multimer content (AUC %) at 0 hrs, plasma B5",3.7 AUC %
same,"Dimer relative to total multimer content (AUC %) at 0 hrs, plasma B7",5.3 AUC %
same,"Dimer relative to total multimer content (AUC %) at 0 hrs, plasma B15",5.1 AUC %
same,"Dimer relative to total multimer content (AUC %) at 0 hrs, plasma B18",3.6 AUC %
same,"Dimer relative to total multimer content (AUC %) at 0 hrs, plasma S6",5.4 AUC %
same,"Dimer relative to total multimer content (AUC %) at 0 hrs, plasma S21",4.9 AUC %
same,"Dimer relative to total multimer content (AUC %) at 5 hrs, plasma B1",9.1 AUC %
same,"Dimer relative to total multimer content (AUC %) at 5 hrs, plasma B2",11.3 AUC %
same,"Dimer relative to total multimer content (AUC %) at 5 hrs, plasma B5",11 AUC %
same,"Dimer relative to total multimer content (AUC %) at 5 hrs, plasma B7",10.1 AUC %
same,"Dimer relative to total multimer content (AUC %) at 5 hrs, plasma B15",12.3 AUC %
same,"Dimer relative to total multimer content (AUC %) at 5 hrs, plasma B18",7 AUC %
same,"Dimer relative to total multimer content (AUC %) at 5 hrs, plasma S6",7 AUC %
same,"Dimer relative to total multimer content (AUC %) at 5 hrs, plasma S21",8.5 AUC %
same,"Increase (%) of dimer 0 vs. 5 hrs, plasma B1",253%
same,"Increase (%) of dimer 0 vs. 5 hrs, plasma B2",209%
same,"Increase (%) of dimer 0 vs. 5 hrs, plasma B5",297%
same,"Increase (%) of dimer 0 vs. 5 hrs, plasma B7",191%
same,"Increase (%) of dimer 0 vs. 5 hrs, plasma B15",241%
same,"Increase (%) of dimer 0 vs. 5 hrs, plasma B18",194%
same,"Increase (%) of dimer 0 vs. 5 hrs, plasma S6",130%
same,"Increase (%) of dimer 0 vs. 5 hrs, plasma S21",173%
same,"UHMW VWF multimers by semi-automated electrophoresis, plasma B1, 10 IU/mL rADAMTS13",disappearance of all the abnormal UHMW VWF multimers
same,"UHMW multimer quantitation parameter after 5 h with 10 IU/mL rADAMTS13, plasma B1",to a level lower than that observed in control plasma (88%)
same,"UHMW multimer quantitation parameter before incubation, plasma B1 (home cast gels)",the elevated UHMW multimer quantitation parameter of 124%
same,"VWF:CB (IU/mL) at 0 hrs, plasma B1, 1 IU/mL rADAMTS13",3.09 IU/mL
same,"VWF:CB (IU/mL) at 0 hrs, plasma B2, 1 IU/mL rADAMTS13",1.39 IU/mL
same,"VWF:CB (IU/mL) at 0 hrs, plasma B5, 1 IU/mL rADAMTS13",2.46 IU/mL
same,"VWF:CB (IU/mL) at 0 hrs, plasma B7, 1 IU/mL rADAMTS13",3.03 IU/mL
same,"VWF:CB (IU/mL) at 0 hrs, plasma B15, 1 IU/mL rADAMTS13",2.44 IU/mL
same,"VWF:CB (IU/mL) at 0 hrs, plasma B18, 1 IU/mL rADAMTS13",2.25 IU/mL
same,"VWF:CB (IU/mL) at 0 hrs, plasma S6, 1 IU/mL rADAMTS13",2.19 IU/mL
same,"VWF:CB (IU/mL) at 0 hrs, plasma S10, 1 IU/mL rADAMTS13",6.48 IU/mL
same,"VWF:CB (IU/mL) at 0 hrs, plasma S12, 1 IU/mL rADAMTS13",3.01 IU/mL
same,"VWF:CB (IU/mL) at 0 hrs, plasma S21, 1 IU/mL rADAMTS13",3.7 IU/mL
same,"VWF:CB (IU/mL) at 5 hrs, plasma B1, 1 IU/mL rADAMTS13",2.02 IU/mL
same,"VWF:CB (IU/mL) at 5 hrs, plasma B2, 1 IU/mL rADAMTS13",0.84 IU/mL
same,"VWF:CB (IU/mL) at 5 hrs, plasma B5, 1 IU/mL rADAMTS13",1.61 IU/mL
same,"VWF:CB (IU/mL) at 5 hrs, plasma B7, 1 IU/mL rADAMTS13",1.58 IU/mL
same,"VWF:CB (IU/mL) at 5 hrs, plasma B15, 1 IU/mL rADAMTS13",1.08 IU/mL
same,"VWF:CB (IU/mL) at 5 hrs, plasma B18, 1 IU/mL rADAMTS13",1.42 IU/mL
same,"VWF:CB (IU/mL) at 5 hrs, plasma S6, 1 IU/mL rADAMTS13",0.73 IU/mL
same,"VWF:CB (IU/mL) at 5 hrs, plasma S10, 1 IU/mL rADAMTS13",3.91 IU/mL
same,"VWF:CB (IU/mL) at 5 hrs, plasma S12, 1 IU/mL rADAMTS13",1.6 IU/mL
same,"VWF:CB (IU/mL) at 5 hrs, plasma S21, 1 IU/mL rADAMTS13",1.63 IU/mL
same,mean VWF:CB of ten patient samples after 5 h incubation with 1 IU/mL rADAMTS13,decreased from 3.01 (SD: 1.37; SEM: 0.434) to 1.64 (SD: 0.89; SEM 0.28) IU/mL
same,mean VWF:CB of ten patient samples before incubation with 1 IU/mL rADAMTS13,decreased from 3.01 (SD: 1.37; SEM: 0.434) to 1.64 (SD: 0.89; SEM 0.28) IU/mL
same,"reduction in VWF activity at 5 h, plasma B1, 10 IU/mL rADAMTS13",more than a 60% reduction at 5 h
same,"reduction in VWF activity within 5 h, plasma B1, 1 IU/mL rADAMTS13","within 5 h, VFW activity reduced by about 30%"
same,"reduction of the UHMW multimer quantitation parameter after 5 h with 1 IU/mL rADAMTS13, plasma B1",reduced by 16% after 5 h of incubation with 1 IU/mL rADAMTS13
same,"reduction of the UHMW multimer quantitation parameter after 5 h with 10 IU/mL rADAMTS13, plasma B1",by 36% with 10 IU/mL rADAMTS13
